Several values for one entry are separate records, joined by “and”; a condition that tells them apart may be missing. Identical values can stand only once.

The target of assay [1] is recombinant NS1 protein of Zika virus MR766 (Rhesus/1947/Uganda) with C-terminal hexahistidine tag (Zika virus MR766, UniProt Q32ZE1 791-1142).
For assay [2], the target named is recombinant NS1 protein of Zika virus PRVABC59 (2015/Puerto Rico) with C-terminal hexahistidine tag (Example … (Zika virus PRVABC59, UniProt A0A024B7W1 795-1146)).
Sequence of recombinant NS1 protein of Zika virus PRVABC59 (2015/Puerto Rico) with C-terminal hexahistidine tag (Example … (A0A024B7W1 795-1146, tags left off): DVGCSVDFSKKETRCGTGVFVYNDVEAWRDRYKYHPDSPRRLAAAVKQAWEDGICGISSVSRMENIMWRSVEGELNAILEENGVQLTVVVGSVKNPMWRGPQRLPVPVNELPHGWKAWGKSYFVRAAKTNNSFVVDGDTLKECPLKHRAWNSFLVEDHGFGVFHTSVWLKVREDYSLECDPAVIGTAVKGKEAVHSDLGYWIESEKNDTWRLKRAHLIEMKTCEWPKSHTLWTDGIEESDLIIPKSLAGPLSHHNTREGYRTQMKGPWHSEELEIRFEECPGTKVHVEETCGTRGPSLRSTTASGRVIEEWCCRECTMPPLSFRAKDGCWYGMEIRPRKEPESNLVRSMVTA

Sequence of recombinant NS1 protein of Zika virus MR766 (Rhesus/1947/Uganda) with C-terminal hexahistidine tag (Q32ZE1 791-1142, tags left off): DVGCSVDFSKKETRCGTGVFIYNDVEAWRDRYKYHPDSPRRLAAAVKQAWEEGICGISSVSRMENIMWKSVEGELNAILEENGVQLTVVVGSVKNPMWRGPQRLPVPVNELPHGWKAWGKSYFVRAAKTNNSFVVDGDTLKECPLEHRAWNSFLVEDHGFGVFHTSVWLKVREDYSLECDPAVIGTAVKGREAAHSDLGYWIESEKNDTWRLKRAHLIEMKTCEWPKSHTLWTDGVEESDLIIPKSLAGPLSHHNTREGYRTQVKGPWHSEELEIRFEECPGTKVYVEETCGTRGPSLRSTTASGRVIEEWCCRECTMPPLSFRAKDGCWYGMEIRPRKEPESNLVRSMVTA

B1: human monoclonal antibody AA12 (antibody, V domains shown)
VH: EVQLVESGGGLIQPGGSLRLSCAASGFTVSSNYMSWVRQAPGKGLEWVSVIYSGGSTYYADSVKGRFTISRDNSKNTLYLQMNSLRAEDTAVYYCARDRRGFDYWGQGTMVTVSS
VL: DIQMTQSPLSLSASVGDRVTITCRTSQSISSYLNWYQQKPGKAPKLLIYAASSLQSGVPSRFSGSGSGTDFTLTISSLQPEDFATYYCQQTYSTPLTFGGGTKVEIK
The term Kd denotes the concentration at which binding is half-saturated. On to B1, for which the dissociation constant (Kd) is 55.4 nM and 99.8 nM in assay [1]; 147 nM and 76.1 nM in assay [2].

The values above are taken from US20220017605A1 (ICAHN SCHOOL OF MEDICINE AT MOUNT SINAI, published 2022).
